Patent publication US20260250352A1
Read-outs that look alike come from different tables or passages of the source.

What was measured:
[1] = molecular target: recombinant human APRIL (human) (UniProt O75888); assay: cell-based or functional assay
[2] = molecular target: recombinant human BAFF (human) (UniProt Q9Y275); assay: cell-based or functional assay
[3] = molecular target: BAFF 60-mer (human) (UniProt Q9Y275); assay: cell-based or functional assay
[4] = molecular target: recombinant human APRIL (human) (UniProt O75888); assay: cell-based or functional assay; remark: listed apart in the source
[5] = molecular target: recombinant human BAFF (human) (UniProt Q9Y275); assay: cell-based or functional assay; remark: listed apart in the source
[6] = molecular target: APRIL + BAFF in combination (human); assay: cell-based or functional assay
[7] = molecular target: recombinant human BAFF (human) (UniProt Q9Y275)
[8] = molecular target: recombinant mouse BAFF (mouse) (UniProt Q9WU72)
Sequence of recombinant mouse BAFF (mouse) (Q9WU72 127-309 limits assumed): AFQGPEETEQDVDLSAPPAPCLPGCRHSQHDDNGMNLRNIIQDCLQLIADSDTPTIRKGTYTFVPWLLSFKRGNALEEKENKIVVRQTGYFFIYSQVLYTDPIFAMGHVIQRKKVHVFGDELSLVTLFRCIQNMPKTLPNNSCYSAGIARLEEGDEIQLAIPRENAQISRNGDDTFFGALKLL

[9] = molecular target: recombinant mouse APRIL (mouse) (UniProt Q9D777)
Sequence of recombinant mouse APRIL (mouse) (Q9D777 96-241 limits assumed): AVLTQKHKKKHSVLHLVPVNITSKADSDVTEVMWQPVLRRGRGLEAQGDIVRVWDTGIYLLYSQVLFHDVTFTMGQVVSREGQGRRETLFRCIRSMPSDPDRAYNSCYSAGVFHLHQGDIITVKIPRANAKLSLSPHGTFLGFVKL

[10] = molecular target: recombinant human BAFF (human) (UniProt Q9Y275); remark: listed apart in the source
[11] = molecular target: single chain BAFF-APRIL-APRIL heterotrimer (BAA) (human) (UniProt Q9Y275); assay: cell-based or functional assay
[12] = molecular target: single chain APRIL-BAFF-BAFF heterotrimer (ABB) (human) (UniProt O75888); assay: cell-based or functional assay
[13] = molecular target: recombinant mouse BAFF (mouse) (UniProt Q9WU72); assay: cell-based or functional assay
[14] = molecular target: single chain BAFF homotrimer (BAFF-BAFF-BAFF) (human) (UniProt Q9Y275); assay: cell-based or functional assay
[15] = molecular target: recombinant mouse APRIL (mouse) (UniProt Q9D777); assay: cell-based or functional assay
[16] = molecular target: recombinant human BAFF (human) (UniProt Q9Y275); remark: listed apart in the source
[17] = molecular target: recombinant human APRIL (human) (UniProt O75888)

Sequence of 27 TACI CRD2-Fc (Fc fusion) (chain): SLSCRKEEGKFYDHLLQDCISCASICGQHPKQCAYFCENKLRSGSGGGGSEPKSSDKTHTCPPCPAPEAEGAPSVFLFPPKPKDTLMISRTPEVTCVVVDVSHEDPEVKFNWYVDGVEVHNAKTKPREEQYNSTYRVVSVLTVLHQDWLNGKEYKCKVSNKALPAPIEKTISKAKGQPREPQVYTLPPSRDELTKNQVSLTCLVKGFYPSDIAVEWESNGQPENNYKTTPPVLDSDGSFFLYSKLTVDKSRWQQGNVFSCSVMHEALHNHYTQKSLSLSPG
Sequence of TACI 13-118-Fc (Fc fusion) (chain): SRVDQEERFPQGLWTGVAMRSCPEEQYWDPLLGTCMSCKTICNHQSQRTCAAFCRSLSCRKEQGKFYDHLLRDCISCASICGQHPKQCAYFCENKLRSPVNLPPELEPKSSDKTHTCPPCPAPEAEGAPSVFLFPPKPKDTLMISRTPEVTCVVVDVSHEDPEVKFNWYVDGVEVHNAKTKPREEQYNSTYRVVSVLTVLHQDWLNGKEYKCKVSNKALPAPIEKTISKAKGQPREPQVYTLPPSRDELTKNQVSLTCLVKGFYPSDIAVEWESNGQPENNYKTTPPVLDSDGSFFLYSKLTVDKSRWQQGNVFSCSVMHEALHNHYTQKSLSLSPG
Sequence of TACI 30-110-Fc (Fc fusion) (chain): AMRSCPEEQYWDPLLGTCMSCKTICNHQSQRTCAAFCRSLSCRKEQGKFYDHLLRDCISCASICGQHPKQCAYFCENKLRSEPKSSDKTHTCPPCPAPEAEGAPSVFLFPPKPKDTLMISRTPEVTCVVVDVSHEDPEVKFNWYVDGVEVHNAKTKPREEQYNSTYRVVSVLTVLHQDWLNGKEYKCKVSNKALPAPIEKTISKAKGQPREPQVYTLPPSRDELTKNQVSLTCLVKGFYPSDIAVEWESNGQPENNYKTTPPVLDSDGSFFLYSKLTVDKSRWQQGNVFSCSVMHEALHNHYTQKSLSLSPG
Sequence of 13 TACI CRD2-Fc (Fc fusion) (chain): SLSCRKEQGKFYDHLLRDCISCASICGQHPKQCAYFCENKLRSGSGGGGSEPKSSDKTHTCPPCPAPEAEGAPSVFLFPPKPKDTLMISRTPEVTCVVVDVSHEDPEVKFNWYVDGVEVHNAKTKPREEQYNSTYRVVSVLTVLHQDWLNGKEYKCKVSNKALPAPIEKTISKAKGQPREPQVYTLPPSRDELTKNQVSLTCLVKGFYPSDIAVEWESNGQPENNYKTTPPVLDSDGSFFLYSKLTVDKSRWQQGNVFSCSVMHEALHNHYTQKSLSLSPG
Sequence of Atacicept (WT TACI-Fc with the atacicept sequence) (Fc fusion) (chain): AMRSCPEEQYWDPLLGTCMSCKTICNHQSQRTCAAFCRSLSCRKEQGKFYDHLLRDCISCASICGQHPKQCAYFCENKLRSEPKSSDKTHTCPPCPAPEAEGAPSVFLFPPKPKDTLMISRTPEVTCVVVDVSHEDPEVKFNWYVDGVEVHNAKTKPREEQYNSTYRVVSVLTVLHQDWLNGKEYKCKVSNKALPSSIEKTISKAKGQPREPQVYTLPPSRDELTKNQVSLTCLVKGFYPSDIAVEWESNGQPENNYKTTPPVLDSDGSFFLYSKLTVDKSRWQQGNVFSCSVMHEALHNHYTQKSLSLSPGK
Sequence of TACI WT 13 (G4S)4 (84) TACI WT 13 GSG4S (74) Fc 73 (Fc fusion) (chain): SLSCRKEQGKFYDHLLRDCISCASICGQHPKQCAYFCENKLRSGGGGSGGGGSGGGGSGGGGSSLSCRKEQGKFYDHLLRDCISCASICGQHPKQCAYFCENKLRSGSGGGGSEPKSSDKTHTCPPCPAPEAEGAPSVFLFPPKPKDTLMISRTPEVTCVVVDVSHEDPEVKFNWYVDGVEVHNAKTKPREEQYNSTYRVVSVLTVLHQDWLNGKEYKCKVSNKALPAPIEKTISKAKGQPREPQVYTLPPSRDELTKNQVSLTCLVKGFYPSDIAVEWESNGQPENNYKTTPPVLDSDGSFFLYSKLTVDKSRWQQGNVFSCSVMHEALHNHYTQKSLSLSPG
Sequence of TACI WT 13 GSG4S (74) Fc 73 (G4S)4 (84) TACI WT 13 (Fc fusion) (chain): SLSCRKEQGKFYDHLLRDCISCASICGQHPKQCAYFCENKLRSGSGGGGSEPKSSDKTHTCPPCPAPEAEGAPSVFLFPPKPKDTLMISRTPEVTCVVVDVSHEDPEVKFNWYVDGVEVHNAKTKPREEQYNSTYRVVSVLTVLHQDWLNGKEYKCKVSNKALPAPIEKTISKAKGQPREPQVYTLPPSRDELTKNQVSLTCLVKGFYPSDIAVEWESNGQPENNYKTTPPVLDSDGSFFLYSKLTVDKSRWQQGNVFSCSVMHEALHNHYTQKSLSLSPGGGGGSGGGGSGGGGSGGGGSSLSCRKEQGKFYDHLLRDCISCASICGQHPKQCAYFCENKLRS
Sequence of 29 TACI CRD2-Fc (Fc fusion) (chain): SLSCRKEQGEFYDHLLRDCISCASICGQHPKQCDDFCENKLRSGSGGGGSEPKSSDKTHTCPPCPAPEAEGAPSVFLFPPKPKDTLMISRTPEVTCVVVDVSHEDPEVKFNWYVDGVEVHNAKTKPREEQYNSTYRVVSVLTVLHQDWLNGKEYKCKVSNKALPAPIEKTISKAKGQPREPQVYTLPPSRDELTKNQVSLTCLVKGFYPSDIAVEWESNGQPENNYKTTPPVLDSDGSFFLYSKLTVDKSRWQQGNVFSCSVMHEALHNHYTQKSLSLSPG
Sequence of WT TACI 13-118-Fc based on the published telitacicept sequence (Fc fusion) (chain): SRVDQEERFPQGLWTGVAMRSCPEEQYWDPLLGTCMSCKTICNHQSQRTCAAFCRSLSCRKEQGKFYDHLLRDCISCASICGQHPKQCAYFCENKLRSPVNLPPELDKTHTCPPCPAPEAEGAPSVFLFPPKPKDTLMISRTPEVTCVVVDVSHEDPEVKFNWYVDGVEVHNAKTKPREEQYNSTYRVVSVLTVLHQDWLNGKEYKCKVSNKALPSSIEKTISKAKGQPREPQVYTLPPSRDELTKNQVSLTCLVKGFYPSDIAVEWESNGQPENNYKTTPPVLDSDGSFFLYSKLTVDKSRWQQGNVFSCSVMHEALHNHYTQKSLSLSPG

IC50, Jurkat/NF-kB/TACI reporter [4] [nM]	IC50 relative to WT TACI (68-110)-Fc (Δ WT) [4]	IC50, Jurkat/NF-kB/TACI reporter [5] [nM]	IC50 relative to WT TACI (68-110)-Fc (Δ WT) [5]	Substance	further results
				TACI WT 13 GSG4S (74) Fc 73 (G4S)4 (84) TACI WT 13 (Fc fusion)	IC50, Jurkat/NF-kB/TACI reporter [1]: 11.9 nM; IC50, Jurkat/NF-kB/TACI reporter [2]: 1.04 nM; IC50, Jurkat/NF-kB/TACI reporter [3]: 2.58 nM
13.2	1.07	1.99	1.07	TACI 13-118, with K77E/F78Y/Y102D, Fc fusion	IC50, Jurkat/NF-kB/TACI reporter [1]: 848 nM; IC50 relative to TACI 30-110 [1]: 0.2; IC50, Jurkat/NF-kB/TACI reporter [2]: 2050 nM; IC50 relative to TACI 30-110 [2]: 0.46
		53.2	28.7	BAFF-R ECD (receptor)	
20	1.62	2.36	1.27	180 TACI CRD2-Fc (Q75E, A101D) (Fc fusion)	
				WT TACI 13-118-Fc based on the published telitacicept sequence (Fc fusion)	IC50, TACI/Jurkat/NF-kB reporter [6]: > 200 nM
0.176	0.01	1.64	0.88	183 TACI CRD2-Fc (F78Y) (Fc fusion)	
11.2	0.91	2.35	1.27	187 TACI CRD2-Fc (R84Q, A101D) (Fc fusion)	
11.8	0.96	1.46	0.79	27 TACI CRD2-Fc (Fc fusion)	IC50, Jurkat/NF-kB/TACI reporter [1]: 262 nM; IC50 relative to TACI 30-110-Fc [1]: 0.07; IC50, Jurkat/NF-kB/TACI reporter [2]: 1390 nM; IC50 relative to TACI 30-110-Fc [2]: 0.24
33.6	2.72	1.95	1.05	189 TACI CRD2-Fc (A101D, Y102D) (Fc fusion)	
11.6	0.94	1.86	1	190 TACI CRD2-Fc (Y102D) (Fc fusion)	
0.566	0.05	5.49	2.96	30 TACI CRD2-Fc (R84Q) (Fc fusion)	IC50 (read off the curve), human BAFF, NF-κB luciferase reporter, Jurkat/TACI/NF-κB cells [7]: 1 nM
11.1	0.9	2.15	1.16	181 TACI CRD2-Fc (Q75E, Y102D) (Fc fusion)	
2.91	0.24	1.18	0.64	29 TACI CRD2-Fc (Fc fusion)	IC50, Jurkat/NF-kB/TACI reporter [1]: 339 nM; IC50 relative to TACI 30-110-Fc [1]: 0.09; IC50 relative to TACI 30-110-Fc [2]: 0.23
0.891	0.07	2.18	1.17	192 TACI CRD2-Fc (K77E, Y102D) (Fc fusion)	
10.1	0.82	1.97	1.06	191 TACI CRD2-Fc (K77E, F78Y) (Fc fusion)	
0.159	0.01	1.54	0.83	32 TACI CRD2-Fc (K77E) (Fc fusion)	

IC50, Jurkat/NF-kB/TACI reporter [4] [nM]	IC50 relative to WT TACI (68-110)-Fc (Δ WT) [4]	IC50, Jurkat/NF-kB/TACI reporter [5] [nM]	IC50 relative to WT TACI (68-110)-Fc (Δ WT) [5]	Substance	further results
				TACI WT 13 (G4S)4 (84) TACI WT 13 GSG4S (74) Fc 73 (Fc fusion)	IC50, Jurkat/NF-kB/TACI reporter [1]: 34.6 nM; IC50, Jurkat/NF-kB/TACI reporter [2]: 3.29 nM; IC50, Jurkat/NF-kB/TACI reporter [3]: 4.33 nM
13.4	1.09	1.79	0.97	179 TACI CRD2-Fc (Q75E, F78Y) (Fc fusion)	
10.1	0.82	2.21	1.19	182 TACI CRD2-Fc (K77E, F78Y, R84Q) (Fc fusion)	
1.94	0.16	1.46	0.79	177 TACI CRD2-Fc (Q75E) (Fc fusion)	
12.3	1	1.85	1	13 TACI CRD2-Fc (Fc fusion)	IC50 (read off the curve), mouse BAFF, NF-κB luciferase reporter, Jurkat/NF-κB/TACI cells [8]: 5 nM; IC50 (read off the curve), mouse APRIL, NF-κB luciferase reporter, Jurkat/NF-κB/TACI cells [9]: 0.7 nM; IC50 (read off the curve), human BAFF, NF-κB luciferase reporter, TACI/Jurkat/NF-κB cells [10]: 3 nM; IC50, TACI/Jurkat/NF-kB reporter [11]: < 0.016 nM; IC50, Jurkat/NF-kB/TACI reporter [1]: 369 nM; IC50, TACI/Jurkat/NF-kB reporter [1]: 8.5 nM; IC50 relative to TACI 30-110-Fc [1]: 0.1; IC50, TACI/Jurkat/NF-kB reporter [12]: 0.179 nM; IC50, Jurkat/NF-kB/TACI reporter [2]: 1330 nM; IC50, TACI/Jurkat/NF-kB reporter [2]: 3 nM; IC50 relative to TACI 30-110-Fc [2]: 0.23; IC50, TACI/Jurkat/NF-kB reporter [6]: 12.9 nM; IC50, TACI/Jurkat/NF-kB reporter [3]: 18.7 nM; IC50, TACI/Jurkat/NF-kB reporter [13]: 2.2 nM; IC50, TACI/Jurkat/NF-kB reporter [14]: 7.46 nM; IC50, TACI/Jurkat/NF-kB reporter [15]: 2.9 nM; IC50 (read off the curve), human BAFF, NF-κB luciferase reporter, Jurkat/NF-κB/TACI cells [16]: 4 nM; IC50 (read off the curve), human APRIL, NF-κB luciferase reporter, Jurkat/TACI/NF-κB cells [17]: 5 nM; IC50 (read off the curve), human BAFF, NF-κB luciferase reporter, Jurkat/TACI/NF-κB cells [7]: 2 nM
12.3	1	1.86	1.01	188 TACI CRD2-Fc (R84Q, Y102D) (Fc fusion)	
4.26	0.35	2.26	1.22	24 TACI CRD2-Fc (K77E, R84Q) (Fc fusion)	
2.04	0.17	1.96	1.06	25 TACI CRD2-Fc (K77E, A101D) (Fc fusion)	
2.62	0.21	2.26	1.22	184 TACI CRD2-Fc (F78Y, R84Q) (Fc fusion)	
8.49	0.69	1.96	1.06	186 TACI CRD2-Fc (F78Y, Y102D) (Fc fusion)	
8.38	0.68	1.83	0.99	23 TACI CRD2-Fc (A101D) (Fc fusion)	
				TACI 30-110-Fc (Fc fusion)	IC50 (read off the curve), human BAFF, NF-κB luciferase reporter, TACI/Jurkat/NF-κB cells [10]: 20 nM; IC50, Jurkat/NF-kB/TACI reporter [1]: 4320 nM; IC50 relative to TACI 30-110 [1]: 1; IC50 relative to TACI 30-110-Fc [1]: 1; IC50, Jurkat/NF-kB/TACI reporter [2]: 4490 nM; IC50 relative to TACI 30-110 [2]: 1; IC50 relative to TACI 30-110-Fc [2]: 1; IC50, TACI/Jurkat/NF-kB reporter [3]: > 100 nM
		7.91	4.26	TACI 13-118-Fc (Fc fusion)	IC50 (read off the curve), human BAFF, NF-κB luciferase reporter, TACI/Jurkat/NF-κB cells [10]: 20 nM; IC50, Jurkat/NF-kB/TACI reporter [1]: 7810 nM; IC50 relative to TACI 30-110 [1]: 1.81; IC50 relative to TACI 30-110-Fc [1]: 2.37; IC50, Jurkat/NF-kB/TACI reporter [2]: 7700 nM; IC50 relative to TACI 30-110 [2]: 1.88; IC50 relative to TACI 30-110-Fc [2]: 1.33
		7.74	4.17	Atacicept (WT TACI-Fc with the atacicept sequence) (Fc fusion)	IC50, Jurkat/NF-kB/TACI reporter [1]: 9.26 nM; IC50, TACI/Jurkat/NF-kB reporter [1]: > 200 nM; IC50, Jurkat/NF-kB/TACI reporter [2]: 8.29 nM; IC50, TACI/Jurkat/NF-kB reporter [2]: 20.8 nM; IC50, Jurkat/NF-kB/TACI reporter [6]: 7.72 nM; IC50, TACI/Jurkat/NF-kB reporter [6]: > 200 nM; IC50, TACI/Jurkat/NF-kB reporter [13]: 9 nM; IC50, TACI/Jurkat/NF-kB reporter [15]: 18 nM
10.7	0.87	1.89	1.02	178 TACI CRD2-Fc (Q75E, K77E) (Fc fusion)	
2.02	0.16	1.85	1	185 TACI CRD2-Fc (F78Y, A101D) (Fc fusion)	
